B1: Spt3 (natural protein, S. cerevisiae, UniProt P06844 1-337, looked up)
chain: MMDKHKYRVEIQQMMFVSGEINDPPVETTSLIEDIVRGQVIEILLQSNKTAHLRGSRSILPEDVIFLIRHDKAKVNRLRTYLSWKDLRKNAKDQDASAGVASGTGNPGAGGEDDLKKAGGGEKDEKDGGNMMKVKKSQIKLPWELQFMFNEHPLENNDDNDDMDEDEREANIVTLKRLKMADDRTRNMTKEEYVHWSDCRQASFTFRKNKRFKDWSGISQLTEGKPHDDVIDILGFLTFEIVCSLTETALKIKQREQVLQTQKDKSQQSSQDNTNFEFASSTLHRKKRLFDGPENVINPLKPRHIEEAWRVLQTIDMRHRALTNFKGGRLSSKPIIM
notes: Spt3, S. cerevisiae, SAGA subunit (SPT module); source: endogenous, in the native SAGA complex purified from fermented S. cerevisiae cells
B2: Taf12 (natural protein, S. cerevisiae, UniProt Q03761 1-539, looked up)
chain: MSSNPENSGVNANNNTGTGNADAITGAQQNMVLQPRQLQEMAAKFRTLLTEARNVGETTPRGKELMFQAAKIKQVYDALTLNRRRQQAAQAYNNTSNSNSSNPASIPTENVPNSSQQQQQQQQQTRNNSNKFSNMIKQVLTPEENQEYEKLWQNFQVRHTSIKEKETYLKQNIDRLEQEINKQTDEGPKQQLQEKKIELLNDWKVLKIEYTKLFNNYQNSKKTFYVECARHNPALHKFLQESTQQQRVQQQRVQQQQQQQQQQQQQQQQQQQQQQQRQGQNQRKISSSNSTEIPSVTGPDALKSQQQQQNTITATNNPRGNVNTSQTEQSKAKVTNVNATASMLNNISSSKSAIFKQTEPAIPISENISTKTPAPVAYRSNRPTITGGSAMNASALNTPATTKLPPYEMDTQRVMSKRKLRELVKTVGIDEGDGETVIDGDVEELLLDLADDFVTNVTAFSCRLAKHRKSDNLEARDIQLHLERNWNIRIPGYSADEIRSTRKWNPSQNYNQKLQSITSDKVAAAKNNGNNVASLNTKK
notes: Taf12, S. cerevisiae, SAGA subunit (TAF module); source: endogenous, in the native SAGA complex purified from fermented S. cerevisiae cells

Assays:
[1] = target: T1, Tra1 (S. cerevisiae, UniProt P38811 1-3744); assay: cross-linking; chemical cross-linking of proteins coupled with mass spectrometry (CXMS) on the purified native SAGA complex; 139 unique inter- and 184 unique intra-subunit cross-linking pairs; settings: both partners purified
T1 construct: Tra1, S. cerevisiae, largest SAGA subunit (SPT module), 3744 residues as printed; Endogenous subunit; Purification methods and any tag are in the Supplementary Materials; also called Tra1_(SAGA); lobe A; source: endogenous, in the native SAGA complex purified from fermented S. cerevisiae cells

[2] = target: T2, Spt7 (S. cerevisiae, UniProt P35177 1-1332); assay: as above; settings: both partners purified
T2 construct: Spt7, S. cerevisiae, second largest SAGA subunit (SPT module); source: endogenous, in the native SAGA complex purified from fermented S. cerevisiae cells
T2 sequence (looked up): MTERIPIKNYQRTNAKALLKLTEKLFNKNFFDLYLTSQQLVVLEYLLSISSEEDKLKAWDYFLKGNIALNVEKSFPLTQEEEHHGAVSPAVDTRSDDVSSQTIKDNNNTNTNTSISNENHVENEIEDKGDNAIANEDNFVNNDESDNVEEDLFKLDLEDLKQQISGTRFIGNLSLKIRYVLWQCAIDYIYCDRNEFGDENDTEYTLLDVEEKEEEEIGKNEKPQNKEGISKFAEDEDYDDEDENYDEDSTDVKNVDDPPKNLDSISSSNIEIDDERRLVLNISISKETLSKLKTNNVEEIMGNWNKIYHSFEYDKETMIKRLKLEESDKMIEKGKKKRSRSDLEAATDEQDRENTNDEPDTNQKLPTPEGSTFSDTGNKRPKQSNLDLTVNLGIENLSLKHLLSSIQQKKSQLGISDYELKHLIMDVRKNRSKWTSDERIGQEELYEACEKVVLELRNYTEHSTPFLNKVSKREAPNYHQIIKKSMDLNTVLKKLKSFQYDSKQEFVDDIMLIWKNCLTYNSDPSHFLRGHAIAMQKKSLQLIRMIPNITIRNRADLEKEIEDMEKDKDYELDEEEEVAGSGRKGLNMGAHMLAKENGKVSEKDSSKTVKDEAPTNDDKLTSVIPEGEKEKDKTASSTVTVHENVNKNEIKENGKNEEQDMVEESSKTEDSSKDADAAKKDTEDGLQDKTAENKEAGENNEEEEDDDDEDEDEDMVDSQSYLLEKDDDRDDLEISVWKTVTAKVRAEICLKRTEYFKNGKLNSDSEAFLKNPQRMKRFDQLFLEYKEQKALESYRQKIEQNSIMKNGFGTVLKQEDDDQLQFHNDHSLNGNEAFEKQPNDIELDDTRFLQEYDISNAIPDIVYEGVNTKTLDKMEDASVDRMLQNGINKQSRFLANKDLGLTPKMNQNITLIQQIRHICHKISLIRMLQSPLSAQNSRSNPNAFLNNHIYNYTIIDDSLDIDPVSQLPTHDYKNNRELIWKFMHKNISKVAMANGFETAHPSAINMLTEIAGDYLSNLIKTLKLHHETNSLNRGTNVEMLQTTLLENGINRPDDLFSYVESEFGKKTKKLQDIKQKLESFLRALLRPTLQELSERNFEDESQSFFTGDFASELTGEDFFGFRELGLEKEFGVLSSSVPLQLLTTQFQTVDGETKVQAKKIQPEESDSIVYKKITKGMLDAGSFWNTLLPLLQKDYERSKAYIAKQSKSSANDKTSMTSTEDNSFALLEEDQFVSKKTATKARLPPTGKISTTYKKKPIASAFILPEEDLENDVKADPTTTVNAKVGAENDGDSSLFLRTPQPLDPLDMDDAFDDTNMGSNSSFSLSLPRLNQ

T1 sequence (P38811 whole entry): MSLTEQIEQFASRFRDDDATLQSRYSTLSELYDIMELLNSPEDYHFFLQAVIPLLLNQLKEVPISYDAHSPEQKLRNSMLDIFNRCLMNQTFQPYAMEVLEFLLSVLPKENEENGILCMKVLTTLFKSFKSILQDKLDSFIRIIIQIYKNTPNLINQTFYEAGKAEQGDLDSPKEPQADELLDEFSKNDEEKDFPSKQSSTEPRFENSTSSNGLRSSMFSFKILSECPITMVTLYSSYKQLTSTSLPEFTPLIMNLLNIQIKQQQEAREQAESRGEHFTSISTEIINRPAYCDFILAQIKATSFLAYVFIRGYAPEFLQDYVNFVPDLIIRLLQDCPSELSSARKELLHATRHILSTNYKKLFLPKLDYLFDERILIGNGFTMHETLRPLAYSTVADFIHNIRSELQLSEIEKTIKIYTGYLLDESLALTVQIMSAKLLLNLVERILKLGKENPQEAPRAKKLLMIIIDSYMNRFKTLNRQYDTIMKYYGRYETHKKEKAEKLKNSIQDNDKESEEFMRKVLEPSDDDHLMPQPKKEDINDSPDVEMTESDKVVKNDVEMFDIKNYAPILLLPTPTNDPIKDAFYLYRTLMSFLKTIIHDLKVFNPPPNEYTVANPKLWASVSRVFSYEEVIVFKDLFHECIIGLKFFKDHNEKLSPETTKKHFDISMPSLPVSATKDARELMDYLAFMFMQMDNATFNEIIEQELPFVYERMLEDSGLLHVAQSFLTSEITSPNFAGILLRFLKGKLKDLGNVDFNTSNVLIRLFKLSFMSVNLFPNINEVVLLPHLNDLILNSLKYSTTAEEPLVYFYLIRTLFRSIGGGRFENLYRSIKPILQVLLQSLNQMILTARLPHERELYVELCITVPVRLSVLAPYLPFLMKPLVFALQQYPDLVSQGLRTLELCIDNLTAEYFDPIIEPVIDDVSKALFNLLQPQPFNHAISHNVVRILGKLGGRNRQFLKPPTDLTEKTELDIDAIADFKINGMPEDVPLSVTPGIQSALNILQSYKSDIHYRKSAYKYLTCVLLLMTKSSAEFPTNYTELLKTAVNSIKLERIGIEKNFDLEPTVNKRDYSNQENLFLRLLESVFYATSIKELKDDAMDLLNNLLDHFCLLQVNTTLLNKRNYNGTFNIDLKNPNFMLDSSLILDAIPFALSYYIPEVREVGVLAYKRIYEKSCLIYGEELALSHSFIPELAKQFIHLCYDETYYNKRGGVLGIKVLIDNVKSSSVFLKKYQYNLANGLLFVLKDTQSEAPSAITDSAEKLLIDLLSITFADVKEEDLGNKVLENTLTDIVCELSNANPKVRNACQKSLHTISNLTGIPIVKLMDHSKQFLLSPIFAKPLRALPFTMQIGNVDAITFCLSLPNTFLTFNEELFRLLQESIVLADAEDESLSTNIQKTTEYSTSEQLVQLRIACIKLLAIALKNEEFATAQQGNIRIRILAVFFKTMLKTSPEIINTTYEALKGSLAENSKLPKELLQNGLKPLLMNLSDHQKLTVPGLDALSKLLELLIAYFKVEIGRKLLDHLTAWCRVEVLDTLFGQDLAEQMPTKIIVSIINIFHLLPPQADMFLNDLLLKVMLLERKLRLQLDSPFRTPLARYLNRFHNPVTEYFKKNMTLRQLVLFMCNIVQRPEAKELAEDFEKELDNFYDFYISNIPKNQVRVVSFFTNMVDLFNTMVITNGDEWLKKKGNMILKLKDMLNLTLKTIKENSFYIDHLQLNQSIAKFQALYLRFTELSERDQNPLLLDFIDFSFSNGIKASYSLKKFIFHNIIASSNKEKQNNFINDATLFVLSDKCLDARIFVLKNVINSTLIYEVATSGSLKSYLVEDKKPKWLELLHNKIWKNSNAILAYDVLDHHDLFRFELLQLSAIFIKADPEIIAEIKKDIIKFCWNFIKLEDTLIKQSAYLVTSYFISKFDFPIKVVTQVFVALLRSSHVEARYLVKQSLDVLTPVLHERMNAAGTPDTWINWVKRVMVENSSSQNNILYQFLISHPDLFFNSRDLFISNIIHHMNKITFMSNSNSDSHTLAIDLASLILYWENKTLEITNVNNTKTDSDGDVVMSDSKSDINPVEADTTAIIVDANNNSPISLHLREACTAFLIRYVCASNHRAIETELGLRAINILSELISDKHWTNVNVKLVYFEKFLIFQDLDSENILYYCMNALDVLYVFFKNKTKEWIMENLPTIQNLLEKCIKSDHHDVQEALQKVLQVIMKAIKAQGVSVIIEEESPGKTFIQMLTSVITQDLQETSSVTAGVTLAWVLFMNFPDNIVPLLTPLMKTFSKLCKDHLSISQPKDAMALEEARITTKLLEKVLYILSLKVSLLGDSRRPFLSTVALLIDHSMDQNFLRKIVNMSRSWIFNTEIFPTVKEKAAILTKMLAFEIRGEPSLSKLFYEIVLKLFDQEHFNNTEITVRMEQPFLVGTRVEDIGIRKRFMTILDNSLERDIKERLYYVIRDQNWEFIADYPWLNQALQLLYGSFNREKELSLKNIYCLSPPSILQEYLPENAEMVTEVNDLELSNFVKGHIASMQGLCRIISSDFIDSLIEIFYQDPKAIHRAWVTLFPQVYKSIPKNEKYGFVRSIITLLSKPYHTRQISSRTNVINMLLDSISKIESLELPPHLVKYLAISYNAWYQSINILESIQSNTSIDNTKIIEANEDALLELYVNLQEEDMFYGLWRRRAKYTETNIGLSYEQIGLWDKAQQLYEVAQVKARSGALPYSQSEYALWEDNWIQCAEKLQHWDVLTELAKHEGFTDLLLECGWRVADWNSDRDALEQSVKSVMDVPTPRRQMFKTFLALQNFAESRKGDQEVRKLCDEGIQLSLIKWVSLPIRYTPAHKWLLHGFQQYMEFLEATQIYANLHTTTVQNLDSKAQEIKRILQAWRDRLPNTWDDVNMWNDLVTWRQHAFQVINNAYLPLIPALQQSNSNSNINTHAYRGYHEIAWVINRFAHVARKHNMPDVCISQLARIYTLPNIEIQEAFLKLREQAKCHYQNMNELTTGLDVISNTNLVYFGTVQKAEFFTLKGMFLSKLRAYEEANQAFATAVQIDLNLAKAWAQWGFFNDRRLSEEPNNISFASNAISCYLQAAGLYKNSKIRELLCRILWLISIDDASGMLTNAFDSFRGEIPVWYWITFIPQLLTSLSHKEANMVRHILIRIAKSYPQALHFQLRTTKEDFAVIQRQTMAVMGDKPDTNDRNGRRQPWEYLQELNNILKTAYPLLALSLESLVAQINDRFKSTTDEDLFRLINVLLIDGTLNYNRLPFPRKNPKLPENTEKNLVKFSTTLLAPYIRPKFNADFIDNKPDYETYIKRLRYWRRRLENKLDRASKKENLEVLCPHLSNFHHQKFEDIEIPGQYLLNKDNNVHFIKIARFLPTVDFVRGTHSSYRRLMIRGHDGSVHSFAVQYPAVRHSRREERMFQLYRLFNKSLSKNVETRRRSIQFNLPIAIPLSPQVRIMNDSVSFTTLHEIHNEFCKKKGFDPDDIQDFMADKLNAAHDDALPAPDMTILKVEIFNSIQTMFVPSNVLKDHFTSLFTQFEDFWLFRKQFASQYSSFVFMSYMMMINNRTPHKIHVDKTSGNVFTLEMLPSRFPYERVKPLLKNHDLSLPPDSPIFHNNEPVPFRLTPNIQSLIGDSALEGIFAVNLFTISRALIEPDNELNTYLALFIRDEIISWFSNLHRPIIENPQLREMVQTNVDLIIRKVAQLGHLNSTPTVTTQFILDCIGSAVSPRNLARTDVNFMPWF

Row | Binder | binding result [1] | binding result [2]
1 | B1 | binds | binds
2 | B2 | binds | binds

From publication PMC6502868, “Architecture of Saccharomyces cerevisiae SAGA complex” (Cell Discovery, 2019)
